The RNAGym collection of RNA variant scans (doi:10.1073/pnas.2313332121)

B1: TPR t1 (parent)
chain: GACCAAUCUGCCCUCAGAGCUCGAGAACAUCUUCGGAUGCAGAGGAGGCAGGCUUCGGUGGCGCGAUAGCGCCAACGUCCUCAACCUCCAAUGCAUCCCACCACAUGAUGAUGCCUGAAGAGCCUUGGUUUUUUG

Variants of: B1
Experiment: polymerase ribozyme fitness, log enrichment relative to wild type (log ratio); higher = more active; in vitro selection for triplet polymerase activity
Procedure, shortened: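 Fitness measures genotype enrichment against wild-type enrichment on a logarithmic scale, with inverse-variance-weighted averaging of replicates. The logarithm is base 2, and genotypes were kept only with ≥10 input reads and ≥1 read per output in Illumina sequencing. The sequenced libraries came from one triplicate in vitro selection round, including frozen incubation at −7 °C, of PCR-built, transcribed mutant libraries of each subunit of a heterodimeric triplet polymerase ribozyme.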

| Variant | polymerase ribozyme fitness (log ratio) |
| --- | --- |
| U32C G71U G110A C123U U131G | -4.9 |
| C34A G58A C89U A121G | -2.92 |
| C34G U112A U130C | -6.03 |
| U32G U59C U112A G122U | -6.09 |
| C34A C53U C98A | -1.98 |
| U32G A68U C70U C80A C101U A111U U126G | -8.12 |
| U33A G69A C79A A121G | -6.8 |
| U33A G44A C72A U112G | -6.21 |
| U33C C124U | -3.97 |
| C34U G52A G71U | -4.6 |
| C34U C86U | -5.16 |
| C34A C73A C85U U130A | -4.99 |
| C34A G71C | -4.06 |
| C34A G71A | -3.26 |
| U33G G48U A105C U126G G127C | -6.34 |
| C34G G36A C49A C86U C124A | -6.09 |
| U33G G63C | -5.3 |
| U33C G63U | -3.43 |
| C34U A41G C53U | -4.95 |
| C34U C40U U54C | -4.99 |
| U32C G36A G60U | -2.12 |

| Variant | polymerase ribozyme fitness (log ratio) |
| --- | --- |
| C34G C97U C123A | -6.44 |
| U32C G47A G51A | -4.87 |
| C34A A66U C101U | -5.31 |
| C34G A43G C53A A111C C123G | -6.97 |
| C34U A68G C70U | -6.49 |
| C34A U131A | -1.94 |
| U33A G57U | -4.65 |
| U33G G61U | -4.97 |
| U32G C49A G117A | -7.02 |
| U33A C49U C73U | -5.84 |
| C34G C73G U116A A121U | -5.9 |
| C34A G44C G60U A121G | -2.34 |
| U32C U78C C89A | -1.52 |
| U33A A119G G120A | -3.37 |
| U32C C98A U106A | -6.32 |
| C34A C64U C94U | -3.02 |
| U32C U78A A84G G122A | -2 |
| U33A G48C G113C | -5.71 |
| C34A G61U | -3.25 |
| C34A G61C | -4.99 |
| C34U G35U | -4.9 |

| Variant | polymerase ribozyme fitness (log ratio) |
| --- | --- |
| U33G C94G G113A | -5.56 |
| C34U C85U | -4.13 |
| C34A A41G A74U C88U C101U | -4.89 |
| C34G G61A U87A G110C | -6.72 |
| C34A G44U G71A C114A | -6.89 |
| C34A G36C G45C U112G | -5.74 |
| U32C G63A U78G C98U G117U | -6.07 |
| C34U A90U | -4.66 |
| C34G U87G U109A | -6.29 |
| C34U C73A C102U C123A | -3.14 |
| C34U C114G | -6.1 |
| C34A C49G C62G A121G | -5.41 |
| U33G G36C | -7.66 |
| C34U G60A C124A | -3.3 |
| U33A A37U U55C G63U A100C | -7.2 |
| U33G G63C U112G U129A | -7.08 |
| U33C G61A U116C C124G | -5.41 |
| C34G C64A U116C G117U | -7.25 |
| C34A U129C | -3.48 |
| C34A U129G | -3.7 |
| C34A G63A | -4.65 |

| Variant | polymerase ribozyme fitness (log ratio) |
| --- | --- |
| C34A C56A U78C C104U | -2.07 |
| C34A U87A | -3.34 |
| C34U C64U G93A A105C C114U | -5.2 |
| C34A A83C | -3.65 |
| U33A C86U | -4.21 |
| C34U G58A C97U C123G | -5.6 |
| U33A G52U G61C C115A | -4.91 |
| U32C C82G U87A | -2.42 |
| C34A C76U G120C | -3.22 |
| U32C G57U G110A | -2 |
| U32C G77U U126G | -2.53 |
| C34G C94U | -6.86 |
| C34U G47C A66C G71A G110C U129C | -6.98 |
| U32C U116A | -3.4 |
| C34U C85U C102U | -3.64 |
| U32C G47U G48U C104G G117U G127C | -6.32 |
| C34A G45C U59A C98G | -3.73 |
| C34U A37G C64U U78C G113U U125G | -5.79 |
| U32C G39U C56U G58C | -0.298 |
| C34A A50U G61A G71C C123G | -6.98 |
